Results: patent US8080523
Where two headings read alike, the source gives them in different places.

How the values were obtained:
[1] = target: T1, Kv1.1 (Mus musculus (Mouse)), P16388; assay: patch-clamp, ratio of Kd values; reference margatoxin on Kv1.3
T1 chain: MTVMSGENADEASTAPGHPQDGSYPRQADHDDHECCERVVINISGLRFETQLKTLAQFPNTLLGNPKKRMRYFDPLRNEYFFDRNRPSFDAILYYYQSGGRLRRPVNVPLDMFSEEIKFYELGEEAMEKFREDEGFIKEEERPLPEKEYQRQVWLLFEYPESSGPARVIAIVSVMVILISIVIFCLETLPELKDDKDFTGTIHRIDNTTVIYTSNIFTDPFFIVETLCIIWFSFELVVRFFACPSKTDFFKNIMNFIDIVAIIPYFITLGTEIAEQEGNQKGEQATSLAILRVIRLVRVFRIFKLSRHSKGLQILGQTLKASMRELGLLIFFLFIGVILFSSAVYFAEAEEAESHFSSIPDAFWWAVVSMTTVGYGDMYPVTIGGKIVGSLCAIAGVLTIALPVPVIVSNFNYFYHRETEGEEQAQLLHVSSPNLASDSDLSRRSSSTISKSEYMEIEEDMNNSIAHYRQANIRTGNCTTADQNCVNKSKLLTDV

[2] = target: T1, Kv1.1 (Mus musculus (Mouse)), P16388; assay: patch-clamp, block of channel current
[3] = target: T2, Kv1.3 (cloned) (Mus musculus (Mouse)), P16390; assay: patch-clamp, block of channel current
T2 chain: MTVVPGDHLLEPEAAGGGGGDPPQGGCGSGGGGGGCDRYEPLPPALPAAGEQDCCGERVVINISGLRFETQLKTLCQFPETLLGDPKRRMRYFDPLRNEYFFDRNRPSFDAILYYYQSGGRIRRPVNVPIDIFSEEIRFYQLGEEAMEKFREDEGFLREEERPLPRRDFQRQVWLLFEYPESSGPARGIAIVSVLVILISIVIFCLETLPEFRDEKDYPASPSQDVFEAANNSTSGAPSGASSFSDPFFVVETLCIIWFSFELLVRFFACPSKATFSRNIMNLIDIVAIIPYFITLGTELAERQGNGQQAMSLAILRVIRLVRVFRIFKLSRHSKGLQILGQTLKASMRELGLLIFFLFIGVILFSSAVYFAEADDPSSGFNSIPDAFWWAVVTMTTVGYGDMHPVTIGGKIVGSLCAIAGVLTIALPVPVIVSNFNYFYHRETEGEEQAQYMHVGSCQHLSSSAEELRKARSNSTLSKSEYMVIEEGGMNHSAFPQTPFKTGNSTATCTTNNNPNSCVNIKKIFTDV

[4] = target: T2, Kv1.3 (cloned) (Mus musculus (Mouse)), …

TIINVKCTSPKQCLPPCKAQFGQSAGAKCMNGKCKCYPH (modifications not checked) [Margatoxin, P40755 1-39] showed a fold selectivity for Kv1.3 over this channel [1] of 9 fold, a Kd [2] of 10 nM and a Kd [3] of 0.11 nM.

Work on RSCIDTIPKSRCTAFQCKHSMKYRLSFCRKTCGTC (modifications not checked) [ShK toxin] yielded a Kd [4] of 0.01 nM.
